In publication PMC6779754:

Molecular target: GST-Bsx (zebrafish) (UniProt Q6R3Q6)
Assay: EMSA
Settings: EMSA: DIG Gel Shift Kit (Roche) per manufacturer, 2.0 pmol GST-Bsx with 32 fmol DIG-oligonucleotide or 8 fmol DIG-147bp probe; buffer, pH and temperature not …

GST-Bsx (zebrafish), sequence (Q6R3Q6 whole entry): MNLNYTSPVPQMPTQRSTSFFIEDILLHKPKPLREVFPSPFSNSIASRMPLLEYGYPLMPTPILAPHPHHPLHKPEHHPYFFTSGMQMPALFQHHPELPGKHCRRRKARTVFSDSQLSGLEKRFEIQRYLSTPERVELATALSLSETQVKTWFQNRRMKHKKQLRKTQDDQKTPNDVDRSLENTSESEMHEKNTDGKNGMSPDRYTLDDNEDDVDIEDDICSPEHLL

Row | Sequence | binding
1 | GATGGAGAAGTGGACGATCGGCACACCTCCGCAGATGAAGCCCGGAGAGCCGGCGCTGCGCTCTTATGTGAACCCCATGAGTCCAGATTAGGCATCGTACAGGAGTGAGTGGCCAGATTGGGGTCAGACAGGGGGATAATCCAGAGA (double strand) [147bp P3 mutant] | binds more weakly
2 | GATGGAGAAGTGGACGATCGGCACACCTCCGCAGATGAAGCCCGGAGAGCCGGCGCTGCGCTCTTATGTGAACCCCATGAGTCCATCGTAGGCAGATTACAGGAGTGAGTGGCCAGATTGGGGTCAGACAGGGGGATAATCCAGAGA (double strand) [147bp P4 mutant] | binds
3 | TCTCTGGATTATCCCCCTGTCTGACCCCAATCTGGCCACTCACTCCTGTAATCTGCCTAATCTGGACTCATGGGGTTCACATAAGAGCGCAGCGCCGGCTCTCCGGGCTTCATCTGCGGAGGTGTGCCGATCGTCCACTTCTCCATC (double strand) [wt147bp] | binds
